Where a SMILES comes first, the peptide text is derived from it.
Columns and labels:
[1] = biological target: T1, MFSD1 (MFSD1WT, mmMFSD1, MFSD1-strep) (Mus musculus, UniProt Q9DC37, Y56A); test: proteoliposome uptake, pyranine fluorescence; type: biochemical; details: pH 6.8, 22 °C, valinomycin; 2.5 mM peptide
T1 construct: full length; N-terminal Twin-Strep-tag + HRV 3C site; Expi293F; purified in DDM/CHS; liposomes POPE:POPG:CHS for transport
T1 sequence (Q9DC37 1-464 Y56A): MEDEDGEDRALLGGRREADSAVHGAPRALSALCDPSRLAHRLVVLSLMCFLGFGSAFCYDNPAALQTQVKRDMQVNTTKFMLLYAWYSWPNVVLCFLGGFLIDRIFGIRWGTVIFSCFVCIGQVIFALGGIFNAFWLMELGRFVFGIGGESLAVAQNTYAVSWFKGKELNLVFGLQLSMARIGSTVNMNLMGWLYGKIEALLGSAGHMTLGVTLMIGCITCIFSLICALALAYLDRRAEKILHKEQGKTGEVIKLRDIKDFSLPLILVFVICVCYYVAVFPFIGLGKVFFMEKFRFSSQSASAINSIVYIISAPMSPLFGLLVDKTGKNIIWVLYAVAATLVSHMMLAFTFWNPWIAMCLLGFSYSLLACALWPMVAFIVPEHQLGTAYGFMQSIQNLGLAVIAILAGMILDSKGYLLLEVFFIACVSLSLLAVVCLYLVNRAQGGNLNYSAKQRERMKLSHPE

[2] = biological target: T2, GLMP–MFSD1 (GLMP–MFSD1-strep fusion) (Mus musculus, UniProt Q9DC37); test: cryo-EM, […] Å map with extra density; type: binding; details: 20 mM His–Ala; central cavity, outward-open; peptide not unambiguously placed; model 8R8Q (called apo) built in this map
T2 construct: single-chain fusion GLMP-GSAGSAAGSGEF-MFSD1; C-terminal 3C site + Twin-Strep-tag; Expi293F; DDM/CHS; with Glycosylated lysosomal membrane protein
T2 sequence (Q9DC37 1-464): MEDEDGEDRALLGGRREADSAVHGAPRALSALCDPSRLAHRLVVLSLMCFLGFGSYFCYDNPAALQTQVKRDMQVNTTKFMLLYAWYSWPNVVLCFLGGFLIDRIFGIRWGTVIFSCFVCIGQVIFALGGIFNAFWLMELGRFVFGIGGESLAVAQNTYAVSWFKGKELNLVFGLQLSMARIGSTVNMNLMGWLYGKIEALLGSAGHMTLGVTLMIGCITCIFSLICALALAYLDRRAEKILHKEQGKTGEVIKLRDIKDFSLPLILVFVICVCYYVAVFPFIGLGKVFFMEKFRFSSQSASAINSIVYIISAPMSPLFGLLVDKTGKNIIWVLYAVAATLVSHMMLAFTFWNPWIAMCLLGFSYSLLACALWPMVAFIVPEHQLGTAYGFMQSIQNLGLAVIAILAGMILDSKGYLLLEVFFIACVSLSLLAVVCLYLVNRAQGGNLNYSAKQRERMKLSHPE
T2 sequence (Q9JHJ3 36-404 partner): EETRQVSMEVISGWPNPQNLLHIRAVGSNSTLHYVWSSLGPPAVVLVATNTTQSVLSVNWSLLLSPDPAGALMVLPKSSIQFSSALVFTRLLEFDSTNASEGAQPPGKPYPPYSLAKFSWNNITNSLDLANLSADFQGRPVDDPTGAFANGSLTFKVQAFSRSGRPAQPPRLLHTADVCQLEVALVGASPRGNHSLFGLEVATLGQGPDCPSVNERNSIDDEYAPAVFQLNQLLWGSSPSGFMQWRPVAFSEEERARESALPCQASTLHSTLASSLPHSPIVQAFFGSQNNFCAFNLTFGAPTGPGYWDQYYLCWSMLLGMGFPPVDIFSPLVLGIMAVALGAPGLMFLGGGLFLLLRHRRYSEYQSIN

[3] = biological target: T3, MFSD1 (MFSD1WT, mmMFSD1, MFSD1-strep) (Mus musculus, UniProt Q9DC37); test: nanoDSF thermal shift titration; type: binding
T3 construct: full length; N-terminal Twin-Strep-tag + HRV 3C site; Expi293F; purified in DDM/CHS; liposomes POPE:POPG:CHS for transport
T3 sequence (Q9DC37 1-464): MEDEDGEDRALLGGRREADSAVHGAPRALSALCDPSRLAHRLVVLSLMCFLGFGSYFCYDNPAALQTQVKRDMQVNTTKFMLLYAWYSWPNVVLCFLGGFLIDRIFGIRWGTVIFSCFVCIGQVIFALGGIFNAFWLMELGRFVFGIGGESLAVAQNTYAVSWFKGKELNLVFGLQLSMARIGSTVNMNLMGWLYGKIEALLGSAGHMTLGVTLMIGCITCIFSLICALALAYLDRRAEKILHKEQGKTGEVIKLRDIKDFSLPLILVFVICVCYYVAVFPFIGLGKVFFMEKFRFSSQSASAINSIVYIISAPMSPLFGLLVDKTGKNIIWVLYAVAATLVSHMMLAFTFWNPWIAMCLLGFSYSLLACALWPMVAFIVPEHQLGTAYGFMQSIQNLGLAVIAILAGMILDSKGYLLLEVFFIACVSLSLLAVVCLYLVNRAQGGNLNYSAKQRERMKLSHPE

[4] = biological target: T3, MFSD1 (MFSD1WT, mmMFSD1, MFSD1-strep); test: nanoDSF thermal shift; type: binding; details: 5 mM ligand, pH 7.5, DDM/CHS
[5] = biological target: MFSD1-strep (mouse major facilitator superfamily domain containing 1 protein with N-terminal Twin-Strep-tag) (mouse) (UniProt Q9DC37)
[6] = biological target: T4, MFSD1 as it stands in the GLMP–MFSD1 fusion construct (mouse, UniProt Q9DC37 1-464); test: cryo-EM structure; purified GLMP–MFSD1 fusion in 20 mM HEPES pH 7.5, 150 mM NaCl, 0.015% DDM, 0.0015% CHS; apo (4.2 Å) and dialysed against 20 mM His–Ala (4.1 Å); outward-open conformation; details: both partners purified
T4 construct: mouse MFSD1, UniProt Q9DC37; C-terminal part of the fusion m3; written apart for the pair row of the structure; also called MFSD1out; source: Expi293F, transiently transfected, purified as part of GLMP–MFSD1-strep; not shown: Twin-Strep, C-terminal, kept
T4 sequence: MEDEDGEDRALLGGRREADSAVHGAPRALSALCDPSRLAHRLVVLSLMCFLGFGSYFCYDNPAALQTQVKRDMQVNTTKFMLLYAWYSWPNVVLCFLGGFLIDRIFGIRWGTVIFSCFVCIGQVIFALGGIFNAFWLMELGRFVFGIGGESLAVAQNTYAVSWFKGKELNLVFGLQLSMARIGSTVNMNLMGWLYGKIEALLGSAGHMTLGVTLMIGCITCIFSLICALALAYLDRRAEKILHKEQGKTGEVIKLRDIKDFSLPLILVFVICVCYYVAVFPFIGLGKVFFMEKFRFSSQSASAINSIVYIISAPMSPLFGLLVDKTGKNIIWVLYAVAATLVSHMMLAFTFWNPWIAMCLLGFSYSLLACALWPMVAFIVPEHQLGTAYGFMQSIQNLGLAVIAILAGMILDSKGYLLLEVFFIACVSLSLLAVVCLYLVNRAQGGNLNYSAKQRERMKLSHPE

[7] = substrate: CC(C)C[C@H](N)C(=O)N[C@@H](C)C(=O)O; test: isotope tracer uptake, LC–MS/MS of Leu(d3) in oocytes; type: cell-based, Mus musculus; details: pH 5.0, room temperature, labelled compound, hydrochloride salt, Extended Data Fig. 4a legend gives 4.4 mM for the displayed fit
[8] = substrate: C[C@H](NC(=O)[C@@H](N)CCCCN)C(=O)O; test: TEVC current in Xenopus oocytes; type: cell-based, Mus musculus; details: pH 5.0, −40 mV, room temperature (20 °C), hydrobromide salt
[9] = substrate: N[C@@H](Cc1c[nH]cn1)C(=O)N[C@@H](CO)C(=O)O; test: proteoliposome uptake, pyranine fluorescence; type: biochemical, Mus musculus; details: pH 6.8, 22 °C, valinomycin-driven membrane potential approx. −100 mV
[10] = substrate: C[C@H](NC(=O)[C@@H](N)Cc1c[nH]cn1)C(=O)O; test: proteoliposome uptake, pyranine fluorescence; type: biochemical, Mus musculus; details: pH 6.8, 22 °C, valinomycin-driven membrane potential approx. −100 mV

## N[C@@H](Cc1c[nH]cn1)C(=O)N[C@@H](CO)C(=O)O [His-Ser] (H-His-Ser-OH)
[1]
  uptake rate vs MFSD1WT: ~ 50 % reduction

## C[C@H](NC(=O)[C@@H](N)Cc1c[nH]cn1)C(=O)O [His–Ala] (H-His-Ala-OH)
[1]
  uptake rate vs MFSD1WT: ~ 50 % reduction
[2]
  cryo-EM, 4.1 Å map with extra density: revealed an additional density for GLMP–MFSD1His–Ala
[3]
  Kd: 6.7 ± 0.55 mM

## CC(C)C[C@H](NC(=O)[C@@H](N)CC(C)C)C(=O)O [Leu–Leu]
[4]
  ΔTm: 14 °C

## His–Ala dipeptide
[5]
  KM of His–Ala uptake into MFSD1 proteoliposomes (pyranine assay): 119 µM

B1: GLMP as it stands in the GLMP–MFSD1 fusion construct (natural protein, mouse, UniProt Q9JHJ3 36-404, looked up)
chain: EETRQVSMEVISGWPNPQNLLHIRAVGSNSTLHYVWSSLGPPAVVLVATNTTQSVLSVNWSLLLSPDPAGALMVLPKSSIQFSSALVFTRLLEFDSTNASEGAQPPGKPYPPYSLAKFSWNNITNSLDLANLSADFQGRPVDDPTGAFANGSLTFKVQAFSRSGRPAQPPRLLHTADVCQLEVALVGASPRGNHSLFGLEVATLGQGPDCPSVNERNSIDDEYAPAVFQLNQLLWGSSPSGFMQWRPVAFSEEERARESALPCQASTLHSTLASSLPHSPIVQAFFGSQNNFCAFNLTFGAPTGPGYWDQYYLCWSMLLGMGFPPVDIFSPLVLGIMAVALGAPGLMFLGGGLFLLLRHRRYSEYQSIN
modifications: N-glycans on Asn85, Asn94, Asn157, Asn228 and Asn331
notes: mouse GLMP, UniProt Q9JHJ3; N-terminal part of the fusion m3; written apart for the pair row of the structure; source: Expi293F, transiently transfected, purified as part of GLMP–MFSD1-strep
[6]
  binding result: binds

B2: MFSD1–GLMP oocytes (MFSD1L11A/L12A-EmGFP + GLMPY400A-mKate2) (Mus musculus; L11A/L12A) (protein)
chain: MEDEDGEDRAAAGGRREADSAVHGAPRALSALCDPSRLAHRLVVLSLMCFLGFGSYFCYDNPAALQTQVKRDMQVNTTKFMLLYAWYSWPNVVLCFLGGFLIDRIFGIRWGTVIFSCFVCIGQVIFALGGIFNAFWLMELGRFVFGIGGESLAVAQNTYAVSWFKGKELNLVFGLQLSMARIGSTVNMNLMGWLYGKIEALLGSAGHMTLGVTLMIGCITCIFSLICALALAYLDRRAEKILHKEQGKTGEVIKLRDIKDFSLPLILVFVICVCYYVAVFPFIGLGKVFFMEKFRFSSQSASAINSIVYIISAPMSPLFGLLVDKTGKNIIWVLYAVAATLVSHMMLAFTFWNPWIAMCLLGFSYSLLACALWPMVAFIVPEHQLGTAYGFMQSIQNLGLAVIAILAGMILDSKGYLLLEVFFIACVSLSLLAVVCLYLVNRAQGGNLNYSAKQRERMKLSHPE
notes: heterodimer at plasma membrane of Xenopus laevis oocytes; lysosomal sorting mutants; EmGFP and mKate2 fusions; with Glycosylated lysosomal membrane protein
[7]
  Km: 5600 ± 1600 µM
[8]
  Km: 2600 ± 400 µM

B3: MFSD1 (MFSD1WT, mmMFSD1, MFSD1-strep) (Mus musculus) (protein)
chain: MEDEDGEDRALLGGRREADSAVHGAPRALSALCDPSRLAHRLVVLSLMCFLGFGSYFCYDNPAALQTQVKRDMQVNTTKFMLLYAWYSWPNVVLCFLGGFLIDRIFGIRWGTVIFSCFVCIGQVIFALGGIFNAFWLMELGRFVFGIGGESLAVAQNTYAVSWFKGKELNLVFGLQLSMARIGSTVNMNLMGWLYGKIEALLGSAGHMTLGVTLMIGCITCIFSLICALALAYLDRRAEKILHKEQGKTGEVIKLRDIKDFSLPLILVFVICVCYYVAVFPFIGLGKVFFMEKFRFSSQSASAINSIVYIISAPMSPLFGLLVDKTGKNIIWVLYAVAATLVSHMMLAFTFWNPWIAMCLLGFSYSLLACALWPMVAFIVPEHQLGTAYGFMQSIQNLGLAVIAILAGMILDSKGYLLLEVFFIACVSLSLLAVVCLYLVNRAQGGNLNYSAKQRERMKLSHPE
notes: full length; N-terminal Twin-Strep-tag + HRV 3C site; Expi293F; purified in DDM/CHS; liposomes POPE:POPG:CHS for transport
[9]
  Km: 24.4 ± 13.5 µM
[10]
  Km: 119.1 ± 59.3 µM

— paper PMC11252000, “MFSD1 with its accessory subunit GLMP functions as a general dipeptide uniporter in lysosomes” (Nature Cell Biology, 2024)
